Measured values taken from the supplement of paper PMC9732359.
± gives the uncertainty stated by the source.

Assay: protein stability index of a GFP-peptide fusion (yeast GPS) (PSI 1-4); higher = more stable; sorted into four equal gates, so the index is relative within each strain
How it was run: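 Yeast carrying a pooled library were grown to mid-log phase in leucine-free medium. Each library plasmid expresses Cherry and has a tiled 17-residue yeast protein peptide fused downstream of GFP. Cells were sorted into four equal gates by GFP/Cherry ratio, and plasmids from each gate were PCR-amplified, Illumina-sequenced and assigned to strains by barcode. Summing, across gates, the read frequency times the gate number gave each peptide's protein stability index.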

| Sequence | protein stability index (doa10∆) | protein stability index (pdr5∆) | protein stability index (san1∆) | protein stability index (ubr1∆) |
| --- | --- | --- | --- | --- |
| TYRSRAQQVPPYGVYHP [SIN4] | 2.77 ± 0.1 | 2.13 ± 0.085 | 2.8 ± 0.063 | 2.71 ± 0.078 |
| SFILYYRRALQSSESFD [YML103C/NUP188] | 1.79 ± 0.055 | 2.11 ± 0.067 | 1.98 ± 0.072 | 2.27 ± 0.052 |
| FANNHFLNSNAVVVGTG [COR1] | 1.41 ± 0.064 | 1.91 ± 0.061 | 2.33 ± 0.064 | 2.04 ± 0.056 |
| KENELLFGEKSILGKFC [YCS4] | 1.55 ± 0.04 | 1.72 ± 0.051 | 1.59 ± 0.11 | 1.73 ± 0.039 |
| IIFEIEKPLVVPVKLEE [RRP6] | 1.88 ± 0.079 | 2.28 ± 0.071 | 2.21 ± 0.12 | 2.14 ± 0.073 |
| SYHNGNLKGRPYTGWVD [FAS2] | 2.07 ± 0.096 | 3.13 ± 0.1 | 3.08 ± 0.1 | 2.83 ± 0.094 |
| VFYAPNVKNYSTTQEIL [RPC34] | 2.4 ± 0.1 | 1.97 ± 0.071 | 3.02 ± 0.082 | 2.06 ± 0.048 |
| LKTKLLEEVEGSCTGKF [RPB7] | 3.53 ± 0.29 | 2.84 ± 0.22 |  |  |
| VNYNSDMIKCFLPKLNS [NUT1] | 2.66 ± 0.13 | 1.98 ± 0.12 | 2.06 ± 0.13 | 1.27 ± 0.066 |
| VLKACGILSDLEIMQLV [RET1] | 1.56 ± 0.11 |  | 1.46 ± 0.22 | 2.56 ± 0.082 |
| CLLSIPKSTKGKILTIK [YML103C/NUP188] | 1.67 ± 0.053 | 1.87 ± 0.062 | 1.66 ± 0.11 | 1.97 ± 0.054 |
| LLLTIQLLIIEKEWENA [SRP72] | 1.42 ± 0.053 | 1.73 ± 0.059 | 2.07 ± 0.12 | 2.26 ± 0.045 |
| HIMEPCIECQPKAMTDT [HRT1] | 3.13 ± 0.13 | 3.25 ± 0.091 | 2.94 ± 0.11 | 3.29 ± 0.077 |
| VLKKPNRAMEYDALLSI [RET1] |  | 2.33 ± 0.19 | 1.69 ± 0.28 |  |
| QAQQAQQAQARLQQGRR [SNF2] | 3.02 ± 0.08 | 3.11 ± 0.092 | 2.88 ± 0.048 | 3.02 ± 0.061 |
| EQILQWVTEVLGNDIPH [BRR2] | 3.07 ± 0.07 | 3.31 ± 0.063 | 2.88 ± 0.047 | 3.19 ± 0.058 |
| FKIHTAKVKKTGEFDFE [RPT4] | 2.3 ± 0.11 | 3.06 ± 0.12 | 2.29 ± 0.17 | 2.81 ± 0.12 |
| DKLTRVHDKIWCCRSGS [PRE3] | 2.78 ± 0.061 | 2.68 ± 0.068 | 2.67 ± 0.056 | 2.9 ± 0.032 |
| MNGNTNANTVFAGSNNQ [YOR098C/NUP1] | 2.63 ± 0.12 | 3.27 ± 0.12 | 3.31 ± 0.16 | 3.26 ± 0.085 |
| HKPNEGRTPNISNGTIN [SIR4] | 2.92 ± 0.071 | 2.9 ± 0.046 | 2.99 ± 0.056 | 3.07 ± 0.048 |
| VVDVALKYPELSIKNSF [NUT1] | 3.04 ± 0.071 | 2.94 ± 0.056 | 2.97 ± 0.059 | 2.77 ± 0.047 |
| QTNIWEENWDDVEVDDD [SEM1] | 3.27 ± 0.16 | 3.28 ± 0.09 | 3.37 ± 0.082 | 3.38 ± 0.13 |
| EIKKLLATNSLVEEFML [DIS3] | 2.32 ± 0.055 | 1.9 ± 0.052 | 2.54 ± 0.057 | 2.3 ± 0.048 |
| AKSNEDKQDGTAKPAFS [YJL041W/NSP1] | 3.03 ± 0.23 | 3.44 ± 0.13 | 3.29 ± 0.17 | 2.96 ± 0.29 |
| QAHEIVIPSYSKWFNLE [SWI3] | 1.84 ± 0.052 | 1.82 ± 0.051 | 1.81 ± 0.071 | 1.66 ± 0.038 |
| AKAPSGLDQSRIPFSER [FAS1] | 2.19 ± 0.081 | 2.19 ± 0.061 | 2.12 ± 0.25 | 2.56 ± 0.047 |

| Sequence | protein stability index (doa10∆) | protein stability index (pdr5∆) | protein stability index (san1∆) | protein stability index (ubr1∆) |
| --- | --- | --- | --- | --- |
| LGIALIALGEDIGKEMS [RPN1] | 3.01 ± 0.081 | 3.01 ± 0.091 | 2.9 ± 0.1 | 3.02 ± 0.06 |
| KLSQYVQEMALGGPITK [FAS2] | 2.6 ± 0.083 | 2.74 ± 0.055 | 2.96 ± 0.049 | 2.53 ± 0.031 |
| KREIQEALSEKPTREPT [RPC53] | 2.96 ± 0.11 | 2.86 ± 0.098 | 3.05 ± 0.11 | 3.15 ± 0.1 |
| KGKKGQKKRVVDPFTRK [RPS1A] | 3.25 ± 0.13 | 3.69 ± 0.18 | 3.19 ± 0.15 | 3.47 ± 0.056 |
| QTQQDLPKVRYNVEKVK [NSL1] | 2.7 ± 0.074 | 2.57 ± 0.063 | 2.75 ± 0.054 | 2.33 ± 0.079 |
| KRPRSRTLTAVHDKILE [RPS7A] | 2.06 ± 0.054 | 2.13 ± 0.052 | 2.25 ± 0.064 | 1.88 ± 0.041 |
| LAPNMQLNGNETFSTSA [SNF2] | 3.15 ± 0.14 | 3.17 ± 0.11 | 3.29 ± 0.068 | 2.92 ± 0.096 |
| IEKLTDGHLRAPLKHGV [BRR2] | 1.72 ± 0.053 | 2.86 ± 0.058 | 3.01 ± 0.051 | 2.04 ± 0.065 |
| AGETLILDGLTVRLVNL [SRB2] | 2.43 ± 0.071 | 2.97 ± 0.082 | 2.46 ± 0.073 | 2.66 ± 0.052 |
| MSVQDTKAVEFSMGHIR [MED4] | 3.24 ± 0.11 | 3.37 ± 0.093 | 3.22 ± 0.069 | 2.9 ± 0.088 |
| PAWRVWLNFLRGTIPLL [PRP8] | 2.38 ± 0.089 | 1.88 ± 0.071 | 1.33 ± 0.1 | 2.96 ± 0.083 |
| PTEMEPDLDTECFISMQ [SWI1] | 3.27 ± 0.055 | 3.39 ± 0.052 | 3.23 ± 0.047 | 3.26 ± 0.058 |
| PKFDVGALMALHGEGSG [RPS1A] | 2.01 ± 0.17 | 2.26 ± 0.092 | 2.23 ± 0.16 | 1.57 ± 0.089 |
| VARIPRVGGGGTGRSGQ [RPL4A] | 3.46 ± 0.15 | 3.39 ± 0.13 | 3.48 ± 0.072 | 2.57 ± 0.086 |
| GKLFSDIKVLKRQLIKE [YIL149C/MLP2] | 3.01 ± 0.12 | 2.56 ± 0.08 | 2.59 ± 0.078 | 2.42 ± 0.04 |
| QFKKLTHAQRTGLSQIP [PRP8] | 2.05 ± 0.11 | 2.46 ± 0.1 | 2.12 ± 0.14 | 2.53 ± 0.12 |
| SRQVQKRPRSRTLTAVH [RPS7A] | 2.54 ± 0.035 | 2.33 ± 0.034 | 2.41 ± 0.037 | 2.03 ± 0.032 |
| VISFGQPKLNPMASSSS [SWI1] | 2.15 ± 0.06 | 1.92 ± 0.074 | 2.61 ± 0.11 | 2.13 ± 0.056 |
| SKATGAPSANQGDEALS [RTT102] | 3.28 ± 0.12 | 3.32 ± 0.1 | 3.13 ± 0.1 | 3.14 ± 0.24 |
| VNQDKANNASQITPTVP [SNF12] | 3.03 ± 0.083 | 3.19 ± 0.081 | 3.11 ± 0.063 | 3.18 ± 0.054 |
| EKITQISLLCKNFKGIE [PCI8] | 2.41 ± 0.049 | 2.55 ± 0.039 | 2.7 ± 0.037 | 2.5 ± 0.035 |
| KCQELVTNIRRIIQDNI [RRP46] | 2.5 ± 0.15 | 2.81 ± 0.1 | 3.08 ± 0.25 | 1.94 ± 0.11 |
| NFNSVNDANITSNKEGF [SSN2] | 3 ± 0.11 | 3.25 ± 0.084 | 3.32 ± 0.054 | 3.12 ± 0.065 |
| VDFEKFETFLVDVNNKF [SIN4] | 3.23 ± 0.07 | 3.34 ± 0.059 | 3.51 ± 0.037 | 3.31 ± 0.052 |
| TDGDSILYYDVLFITPD [BRR2] | 2.47 ± 0.068 | 2.5 ± 0.064 | 2.54 ± 0.068 | 2.94 ± 0.051 |
| PGNNIPYMNHKNTSSMD [GAL11] |  | 2.11 ± 0.14 | 2.16 ± 0.21 |  |
